Test results as given in US7304127.
“And” between values parts separate entries of the source, which are not always exact repeats. Equal entries are not always repeated.

Each binder was assayed against HIV-1LAI envelope gp120 labeled with radioactive iodine (HIV-1 LAI), P03377 (assay: 125I-gp120, peptide array).

Row | Binder | counts minus background (counts per 20 min)
1 | LKSMTDIYLLNLAISDLF (modifications not checked) [CCR5 61-78] | 210
2 | LTSVSRGSSLKILSKGKR (modifications not checked) [CXCR4 317-334] | 183
3 | IGISIDSFILLEIIKQGC (modifications not checked) [CXCR4 257-274] | 734
4 | MCKSLLGIYTINFYTSML (modifications not checked) [STRL33 101-118] | 1510 and 1280
5 | IIISKLSHSKGHQKRKAL (modifications not checked) [CXCR4 221-238] | 157
6 | QWDFGNTMCQLLTGLYFI (modifications not checked) [CCR5 93-110] | 1020
7 | FWAHYAAAQWDFGNTMCQ (modifications not checked) [CCR5 85-102] | 212
8 | DSSQEEHQAFLQFSKVFL (modifications not checked) [STRL33 17-34] | 870 and 2150
9 | VCTLPFWAYAGIHEWVFG (modifications not checked) [STRL33 81-98] | 1820 and 1750
10 | IDSFILLEIIKQGCEFEN (modifications not checked) [CXCR4 261-278] | 3470
11 | FACWLPYYIGISIDSFIL (modifications not checked) [CXCR4 249-266] | 202
12 | EEHQAFLQFSKVFLPCMY (modifications not checked) [STRL33 21-38] | 2320 and 1820
13 | LSKGKRGGHSSVSTESES (modifications not checked) [CXCR4 329-346] | 185
14 | IFYHKLQSLTDVFLVNLP (modifications not checked) [STRL33 57-74] | 1280 and 1260
15 | AISDLFFLLTVPFWAHYA (modifications not checked) [CCR5 73-90] | 41
16 | HSSVSTESESSSFHSS (modifications not checked) [CXCR4 337-352] | 103
17 | DYHEDYGFSSFNDSSQEE (modifications not checked) [STRL33 5-22] | 3360 and 3690
18 | MAEHDYHEDYGFSSFNDS (modifications not checked) [STRL33 1-18] | 1180 and 1320
19 | LTDVFLVNLPLADLVFVC (modifications not checked) [STRL33 65-82] | 234 and 336
20 | LPYYIGISIDSFILLEII (modifications not checked) [CXCR4 253-270] | 439
21 | MYLVVFVCGLVGNSLVLV (modifications not checked) [STRL33 37-54] | 168 and 236
22 | ILAFFACWLPYYIGISID (modifications not checked) [CXCR4 245-262] | 184

Row | Binder | counts minus background (counts per 20 min)
23 | TDIYLLNLAISDLFFLLT (modifications not checked) [CCR5 65-82] | 38
24 | AFLQFSKVFLPCMYLVVF (modifications not checked) [STRL33 25-42] | 1420 and 1360
25 | KRGGHSSVSTESESSSFH (modifications not checked) [CXCR4 333-350] | 167
26 | HEWVFGQVMCKSLLGIYT (modifications not checked) [STRL33 93-110] | 3390 and 3470
27 | NCKRLKSMTDIYLLNLAI (modifications not checked) [CCR5 57-74] | 25
28 | GLVGNSLVLVISIFYHKL (modifications not checked) [STRL33 45-62] | 164 and 95.5
29 | ENTVHKWISITEALAFFH (modifications not checked) [CXCR4 277-294] | 315
30 | KLSHSKGHQKRKALKTTV (modifications not checked) [CXCR4 225-242] | 130
31 | HKWISITEALAFFHCCLN (modifications not checked) [CXCR4 281-298] | 163
32 | PFWAYAGIHEWVFGQVMC (modifications not checked) [STRL33 85-102] | 7260 and 7540
33 | YAGIHEWVFGQVMCKSLL (modifications not checked) [STRL33 89-106] | 5910 and 6250
34 | ALKTTVILILAFFACWLP (modifications not checked) [CXCR4 237-254] | 261
35 | LLNLAISDLFFLLTVPFW (modifications not checked) [CCR5 69-86] | 144
36 | ILLEIIKQGCEFENTVHK (modifications not checked) [CXCR4 265-282] | 117
37 | SLKILSKGKRGGHSSVST (modifications not checked) [CXCR4 325-342] | 285
38 | MLILTCITVDRFIVVVKA (modifications not checked) [STRL33 117-134] | 298 and 228
39 | FHCCLNPILYAFLGAKFK (modifications not checked) [CXCR4 293-310] | 123
40 | AQHALTSVSRGSSLKILS (modifications not checked) [CXCR4 313-330] | 147
41 | DYGFSSFNDSSQEEHQAF (modifications not checked) [STRL33 9-26] | 8580 and 8910
42 | IIKQGCEFENTVHKWISI (modifications not checked) [CXCR4 269-286] | 106
43 | VDRFIVVVKATKAYNQQA (modifications not checked) [STRL33 125-142] | 104 and 53.5
44 | LFFLLTVPFWAHYAAAQW (modifications not checked) [CCR5 77-94] | 173

Row | Binder | counts minus background (counts per 20 min)
45 | SITEALAFFHCCLNPILY (modifications not checked) [CXCR4 285-302] | 188
46 | VSSPIYDINYYTSEPCQK (modifications not checked) [CCR5 5-22] | 383
47 | LTVPFWAHYAAAQWDFGN (modifications not checked) [CCR5 81-98] | 306
48 | LGAKFKTSAQHALTSVSR (modifications not checked) [CXCR4 305-322] | 200
49 | TVILILAFFACWLPYYIG (modifications not checked) [CXCR4 241-258] | 323
50 | SKGHQKRKALKTTVILIL (modifications not checked) [CXCR4 229-246] | 140
51 | SSFNDSSQEEHQAFLQFS (modifications not checked) [STRL33 13-30] | 2690 and 2760
52 | FGQVMCKSLLGIYTINFY (modifications not checked) [STRL33 97-114] | 1260 and 1350
53 | YAAAQWDFGNTMCQLLTG (modifications not checked) [CCR5 89-106] | 494
54 | DLVFVCTLPFWAYAGIHE (modifications not checked) [STRL33 77-94] | 1120 and 1060
55 | ALAFFHCCLNPILYAFLG (modifications not checked) [CXCR4 289-306] | 181
56 | FLVNLPLADLVFVCTLPF (modifications not checked) [STRL33 69-86] | 70.5 and 51.5
57 | NSLVLVISIFYHKLQSLT (modifications not checked) [STRL33 49-66] | 1260 and 1380
58 | FKTSAQHALTSVSRGSSL (modifications not checked) [CXCR4 309-326] | 173
59 | GCEFENTVHKWISITEAL (modifications not checked) [CXCR4 273-290] | 264
60 | LVISIFYHKLQSLTDVFL (modifications not checked) [STRL33 53-70] | 1620 and 1780
61 | LPLADLVFVCTLPFWAYA (modifications not checked) [STRL33 73-90] | 558 and 960
62 | LYAFLGAKFKTSAQHALT (modifications not checked) [CXCR4 301-318] | 156
63 | SRGSSLKILSKGKRGGHS (modifications not checked) [CXCR4 321-338] | 169
64 | LNPILYAFLGAKFKTSAQ (modifications not checked) [CXCR4 297-314] | 274
65 | QKRKALKTTVILILAFFA (modifications not checked) [CXCR4 233-250] | 283
